Laboratory results as given in US20190248902A1 (published 2019).
Substitutions are numbered along the chain they refer to. Each block holds one binder with its values, some of them ahead of it.

Columns and labels:
human ASGR-1 (wild type) [1] = target: T1, human ASGR-1 (wild type) (human, UniProt P07306 1-291); test: FACS ratio: 65C12 geomean / this mAb geomean
T1 construct: also called wt ASGR1; huASGR-1
T1 sequence: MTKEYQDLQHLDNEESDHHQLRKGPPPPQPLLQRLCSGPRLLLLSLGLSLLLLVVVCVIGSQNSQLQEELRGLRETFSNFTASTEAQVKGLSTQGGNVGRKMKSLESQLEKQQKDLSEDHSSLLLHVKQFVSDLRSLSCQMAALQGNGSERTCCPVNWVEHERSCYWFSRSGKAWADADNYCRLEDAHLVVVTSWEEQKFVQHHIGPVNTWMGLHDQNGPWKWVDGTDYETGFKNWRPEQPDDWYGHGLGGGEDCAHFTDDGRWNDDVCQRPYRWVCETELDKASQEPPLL
Method: (§1) Mutant hASGR-1 variants were constructed such that non-arginine residues were changed to arginine and where wild type arginine residues were mutated to glutamic acid. Each mutant hASGR-1 sequence was then cloned into a mammalian expression vector and used to transiently transfect CHOs cells. The ability of human ASGR-1-specific, ligand competing antibodies to bind to the mutant hASGR-1 proteins was assessed by FACS as described above.
(§2) Antibodies were tested for binding to the individual mutant and wild type ASGR-1 constructs using normalized antibody concentrations (5 ug/ml). CHO—S cells transiently expressing the appropriate mutated or non-mutated antigen of interest were mixed with antibody sample or controls, incubated for 1 hour at 4° C., and then washed twice. Cells with bound antibody were then incubated with Alexa Fluor® 647 IgG Fc fragment-specific detection antibody and 7-AAD viability stain for 15 minutes at 4° C., washed once and resuspended in FACS buffer. Samples were analyzed using a BD Accuri™ Flow Cytometer and an Intellicyt HyperCyt Autosampler. As a negative control, supernatants and controls were also screened against CHO—S cells transfected with empty parental vector (referred to as mock). […] Because mutant hASGR-1 expression levels varied relative to each other, sample binding data for each construct was normalized for expression by dividing the binding data from an antibody not affected by the mutations (e.g., 65C12) by the binding values of each test antibody on a given mutant construct. Also, because the antibody binding affinities varied amongst the samples, the expression corrected data (above) was further normalized by comparing test antibody binding on each mutant construct to wild type hASGR-1. Identification of specific mutations that affected test antibody binding was performed by an interquartile range (IQR) analysis to determine statistical outliers. A mutation was identified as a “hit” if the calculated values were >3× the IQR (above the 3rd quartile/upper fence) for a given mutant construct.

[2] = target: T2, human ASGR-1 mutant construct H203 (human, UniProt P07306 1-291); test: FACS ratio: 65C12 geomean / this mAb geomean
T2 construct: Arg/Glu scanning: non-arginine residues were changed to arginine; Transiently expressed on CHO-S cells
T2 sequence: T1 sequence with H203R
Method: as §1, §2

human ASGR-1 (wild type) [3] = target: T1, human ASGR-1 (wild type); test: FACS, transfected CHO-S cells, mAb 5 ug/ml
Method: (§3) The ability of human ASGR-1-specific, ligand competing antibodies to bind to the mutant hASGR-1 proteins was assessed by FACS as described above.
(§4) Antibodies were tested for binding to the individual mutant and wild type ASGR-1 constructs using normalized antibody concentrations (5 ug/ml). CHO—S cells transiently expressing the appropriate mutated or non-mutated antigen of interest were mixed with antibody sample or controls, incubated for 1 hour at 4° C., and then washed twice. Cells with bound antibody were then incubated with Alexa Fluor® 647 IgG Fc fragment-specific detection antibody and 7-AAD viability stain for 15 minutes at 4° C., washed once and resuspended in FACS buffer. Samples were analyzed using a BD Accuri™ Flow Cytometer and an Intellicyt HyperCyt Autosampler. As a negative control, supernatants and controls were also screened against CHO—S cells transfected with empty parental vector (referred to as mock). […] Because mutant hASGR-1 expression levels varied relative to each other, sample binding data for each construct was normalized for expression by dividing the binding data from an antibody not affected by the mutations (e.g., 65C12) by the binding values of each test antibody on a given mutant construct. Also, because the antibody binding affinities varied amongst the samples, the expression corrected data (above) was further normalized by comparing test antibody binding on each mutant construct to wild type hASGR-1. Identification of specific mutations that affected test antibody binding was performed by an interquartile range (IQR) analysis to determine statistical outliers. A mutation was identified as a “hit” if the calculated values were >3× the IQR (above the 3rd quartile/upper fence) for a given mutant construct. Although IQR analysis was used here to determine signifance and identify hits, one skilled in the art will recognize that a number of methods could be employed in order to normalize the data (eg. using epitope-tagged constructs or other ASGR-1-binding antibodies directed against non-CBD epitopes).

[4] = target: T2, human ASGR-1 mutant construct H203; test: FACS, transfected CHO-S cells, mAb 5 ug/ml
Method: as §3, §4

[5] = target: T2, human ASGR-1 mutant construct H203; test: FACS ratio: H203 normalized value / wt normalized value
Method: as §3, §4

B1: 61A1 (antibody, V domains shown)
VH: QVQLQESGPGLVKPSETLSLTCTVSGGSISSHFWSWIRQPAGKGLEWIGRIYIRGSTNYNPSLKSRVTMSVDTSKNQFSLKLSSVTAADTAVYYCAREGKTGGVSYFDYWGQGTLVTVSS
VL: DIQMTQSPSSLSASVGDRVTITCRASQSISSYLNWYQQKPGKAPKLLIYAASSLQSGVPSRFSGSGSGTDFTLTISSLQPEDFAPYYCQQSYNISFTFGPGTKVDIK
notes: mAb
- Expression Normalization to mAb 65C12 (human ASGR-1 (wild type) [1]): 1.4
- Expression Normalization to mAb 65C12 [2]: 1.28
- FACS Binding Geomean (human ASGR-1 (wild type) [3]): 40000
- FACS Binding Geomean [4]: 20100
- Normalization to wt ASGR1 Binding [5]: 0.911

B2: 56E3 (antibody, V domains shown)
VH: QVQLVQSGAEVKKPGASVKVSCKASGYTFNSYGFSWVRQAPGQGLEWMGWISAYNGNTKEAQKFQGRVTMTTDTSTSTAYMELRSLRADDTAVYYCARHDFWSGYYKGMDVWGQGTTVTVSS
VL: not shown
notes: mAb
- Expression Normalization to mAb 65C12 (human ASGR-1 (wild type) [1]): 1.66
- Expression Normalization to mAb 65C12 [2]: 1.26
- FACS Binding Geomean (human ASGR-1 (wild type) [3]): 33900
- FACS Binding Geomean [4]: 20400
- Normalization to wt ASGR1 Binding [5]: 0.762

B6: 60C12 (antibody, V domains shown)
VH: QVQLVESGGGVVQPGRSLRLSCAASGFTFSSYGMHWVRQAPGKGLEWVAVIWYDGSNKYYVDSVKGRFTISRDNSKNTLYLQMNSLRAEDTAVYYCARRYSRSWTGGMDVWGQGTTVTVSS
VL: DIVMTQTPLSLSVTPGQPASISCKSSQSLLHSEGKTYLYWYLQKPGQPPQFLIYEVSNRFSGVPDRFSGSGSGTDFTLKISRVEAEDVGIYYCMQSIKYPLTFGGGTKVEIK
notes: mAb
- Expression Normalization to mAb 65C12 (human ASGR-1 (wild type) [1]): 1.79
- Expression Normalization to mAb 65C12 [2]: 1.3
- FACS Binding Geomean (human ASGR-1 (wild type) [3]): 31300
- FACS Binding Geomean [4]: 19800
- Normalization to wt ASGR1 Binding [5]: 0.725

B8: 65D5 (antibody, V domains shown)
VH: QVQLVQSGAEVKKPGASVKVSCKASGYTFPSYGISWVRQAPGQGLEWMGWISAYSGNTNYAQKLQGRVTMTTDTSTSTAYMELRSLRSDDTAVYFCARGEAVAVFDPWGQGTLVTVSS
VL: DIQMTQSPSSLSASVGDRVTITCRASQDINNYLAWFQQKPGKAPRSLIYAASSLHSGVPSQFSASGSGSDFTLTISSLQPEDFATYYCPLYKSYPLTFGPGTKVDIK
notes: mAb
- Expression Normalization to mAb 65C12 (human ASGR-1 (wild type) [1]): 1.37
- Expression Normalization to mAb 65C12 [2]: 1.27
- FACS Binding Geomean (human ASGR-1 (wild type) [3]): 41000
- FACS Binding Geomean [4]: 20300
- Normalization to wt ASGR1 Binding [5]: 0.928

B10: 52H2 (antibody, V domains shown)
VH: EVQLLESGGGLVQPGGSLRLSCAASGFTFSRNAMSWVRQAPGMGLEWVSAISGRGGNTFYADSVKGRFTVSRDNSKNTLFLQMNSLRAEDTAVYYCAKNGREQWLDYWGQGTLVTVSS
VL: DIQMTQSPSSVSASVGDRVTITCRASQNITNWLAWFQQKPGRAPKLLIYTTSSLQSGVPSRFSGSGSGTDFTLTISSLQPEDFATYCCQQTNSFPWTFGHGTKVEVK
notes: mAb
- Expression Normalization to mAb 65C12 (human ASGR-1 (wild type) [1]): 1.17
- Expression Normalization to mAb 65C12 [2]: 1.38
- FACS Binding Geomean (human ASGR-1 (wild type) [3]): 48000
- FACS Binding Geomean [4]: 18600
- Normalization to wt ASGR1 Binding [5]: 1.18

Second part, the binder after the results:

- Expression Normalization to mAb 65C12 (human ASGR-1 (wild type) [1]): 1.4
- Expression Normalization to mAb 65C12 [2]: 1.2
- FACS Binding Geomean (human ASGR-1 (wild type) [3]): 40200
- FACS Binding Geomean [4]: 21500
- Normalization to wt ASGR1 Binding [5]: 0.858
B3: 147E9 (antibody, V domains shown)
VH: EVQLVESGGGLVQPGGSLRLSCAASGFTFSSYSMNWVRQAPGKGLEWVSSISGRNTTIYYADSVKGRFTISRDNAKNSLYLQMNSLRDEDTAVYYCSRDRGSCWGQGTLVTVSS
VL: DIQMTQSPSSLSASVGDRVTITCRASQDINNYLAWFQQKPGKAPKSLIVAASSLQSGVPSKFSGSGSGTDFTLTISSLQPEDFATYYCQQYNSYPLTFGGGTKVEIK
notes: mAb

- Expression Normalization to mAb 65C12 (human ASGR-1 (wild type) [1]): 1.7
- Expression Normalization to mAb 65C12 [2]: 1.56
- FACS Binding Geomean (human ASGR-1 (wild type) [3]): 33000
- FACS Binding Geomean [4]: 16500
- Normalization to wt ASGR1 Binding [5]: 0.917
B4: 85F7 (antibody, V domains shown)
VH: QVQLQQWGAGLLKPSEPLSLTCAVYGGSFSGPYWSWIRQPPGKGLEWIGEINHSGSTNYNPSLKSRVTISVDTSKNQFSLKLTSVTAADTAVYYCARDYGGLDVWGQGTTVTVSS
VL: EPVLTQSPGTLSLSPGERATLSCRASQNIYSNYLAWYQQKPGQAPRLLIYGASSRATGIPDRFSGSGSGTDFTLTISRLEPEDFAVYCCQQYESSPWTFGQGTKVEIK
notes: mAb

- Expression Normalization to mAb 65C12 (human ASGR-1 (wild type) [1]): 2.38
- Expression Normalization to mAb 65C12 [2]: 2.91
- FACS Binding Geomean (human ASGR-1 (wild type) [3]): 23600
- FACS Binding Geomean [4]: 8870
- Normalization to wt ASGR1 Binding [5]: 1.22
B5: 149D11 (antibody, V domains shown)
VH: EVQLLESGGGLVQPGGSLRLSCAASGFTFSSYAMSWVRQAPGKGLEWVSAISGRGGNTFYADSVKGRFTISRDNSKNTLYRQMNSLRAEDTAVYYCAKKDYDYVWGSPYFDYWGQGTLVTVSS
VL: DIQMTQSPASVSASVGDRVTITCRASQNISNWLTWYQQKPGKAPKLLIYAASSLQSGVPSRFSGSGSGTDFTLSISSLQPEDFATYYCQQTDSFPFTFGPGTKVDVK
notes: mAb

- Expression Normalization to mAb 65C12 (human ASGR-1 (wild type) [1]): 1.97
- Expression Normalization to mAb 65C12 [2]: 1.86
- FACS Binding Geomean (human ASGR-1 (wild type) [3]): 28500
- FACS Binding Geomean [4]: 13900
- Normalization to wt ASGR1 Binding [5]: 0.945
B7: 173C11 (antibody, V domains shown)
VH: B6 VH with M34I, V50L, W52F, V61A, Q82H, N84S, R102S, T105S
VL: DIVMTQTPLSLSVTPGQPASISCKSSQSLLHSEGKTYLYWYLQKPGQPPQLLIYEVSHRFSGVPDRFSGSGSGTDFTLKISRVEAEDVGVYYCMQSIQLLTFGGGTKVEIK
notes: mAb

- Expression Normalization to mAb 65C12 (human ASGR-1 (wild type) [1]): 3.72
- Expression Normalization to mAb 65C12 [2]: 2.01
- FACS Binding Geomean (human ASGR-1 (wild type) [3]): 15100
- FACS Binding Geomean [4]: 12800
- Normalization to wt ASGR1 Binding [5]: 0.539
B9: 213B3 (antibody, V domains shown)
VH: QVQLVESGGGVVQPGRSLRLSCAASGFTFSSYGMHWVRQAPGKGLEWVAVIWYDGSNKNYADSVKGRFTISRDNSKNTLYLQMNSLRAEDTAVYYCARDRTVGYDGFDIWGQGTMVTVSS
VL: DIQMTQSPSSLSASVGDRVTITCRASQGIGKYLAWFQQKPGKAPKSLISAASSVLSGVPSKFSGSGSGTDFTLTISSLQPEDFATYYCQKYDTYPFTFGPGTKVDIK
notes: mAb

- Expression Normalization to mAb 65C12 (human ASGR-1 (wild type) [1]): 1.67
- Expression Normalization to mAb 65C12 [2]: 1.74
- FACS Binding Geomean (human ASGR-1 (wild type) [3]): 33600
- FACS Binding Geomean [4]: 14800
- Normalization to wt ASGR1 Binding [5]: 1.04
B11: 175F4 (antibody, V domains shown)
VH: QVQLQQSGPGLVKPSQTLSLTCAISGDSVSSNSAAWNWIRQSPSRGLEWLGRTYYRSKWYNAYPVSMESRISINPDTSKNQFSLQLNSVTPEDTAVYYCARDKAAGRNDFYYYGMDVWGQGTTVTVSS
VL: QSALTQPASVSGSPGQSITISCTGTSSDVGRFNLVSWYQQHPGYAPKLMIYEVSKRPSGVSNRFSGSKSGNTASLTISGLQAEDEADYYCCSYAGSSTYVVFGGGTKLTVL
notes: mAb
